We go through seven molecules from patent publication US20040157314A1, “Inhibitors of Staphylococcus aureus primary sigma factor and uses thereof” (priority 2003, published 2004).

The target of test [1] is T1, reconstituted holoenzyme from HK-STAAU_R12 and S. aureus core enzyme (Staphylococcus aureus, UniProt P0A0J0).
T1 construct: made in house; S. aureus RN4220 transformed with pTMHB rpoA (core enzyme)
Kind of test: In vitro transcription and TCA precipitation assay, 96-well. It counts as biochemical. As to conditions: 10 μM, FIG. 8. From the text:
In order to convert this gel-based transcription assay to a 96-well high through put format, we used an in vitro transcription assay followed by a TCA precipitation step in order to separate radiolabeled nucleotides incorporated into nucleic acid from unincorporated label. Such format is convenient as it will allow rapid screening with a large collection of compounds. In this TCA precipitation assay, we reconstituted the holoenzyme from STAAU_R12 and S. aureus core enzyme instead of using the E. coli core enzyme with STAAU_R12.
The E. coli core enzyme (Epicentre) was used as a positive control for monitoring transcription efficiency. The set up of high throughput screening assay for STAAU_R12 is illustrated in FIG. 7. […] UTP (3000 Ci/mmole), 1 U of RNasin (Promega) and 40 ng of pTMSM template DNA (a pTM derivative vector). To investigate the in vitroeffectofG1ORF67 on STAAU_R12 mediated transcriptional activation, G1ORF67 and a negative control (10 μM) were added to the mixture and the reaction was incubated for 1 h at 37° C. in a 96-well PCR-plate (BD-Falcon™). […] After filtration, the wells were washed 3 times (225 μl per wash) with 10% TCA, 2 times (225 μl per wash) with 95% ethanol and then 75 μl of liquid scintillation cocktail was added and the plates were counted for 30 s on a Trilux™ Microbeta counter (Perkin Elmer-Packard).

Test [2] addresses SV40 large T antigen (pGADT7-LargeT) (SV40, UniProt P03070 86-708). Nature of the test: yeast two-hybrid, AH109.
In test [3] the target is T2, STAAU_R12 (Staphylococcus aureus, UniProt P0A0J0). Kind of test: Yeast two-hybrid analysis. The test is classed as cell-based. As to conditions: yeast AH109. On the set-up: expressed in transfected cells; host or cells: yeast strain AH109 (Clontech).
Source text: To validate the interaction between G1ORF67 and STAAU_R12, we first performed yeast two-hybrid analyses with full length and deletions within both STAAU_R12 and G1ORF67. The inserts were cloned into pGADT7™ and pGBK™, the yeast vectors for two hybrid system studies (Clontech Laboratories) as fusions with the Gal4 activation domain (for pGADT7™) as well as with the Gal4 DNA-binding domain (for pGBK™). pGADT7 and pGBK recombinant plasmids bearing different combinations of constructs were introduced into a yeast strain (AH109, Clontech Laboratories), previously engineered to contain chromosomally-integrated copies of E. coli lacZand the selectable HIS3 and ADE2 genes. […]
To define the minimal region of STAAU_R12 conferring an interaction with G1ORF67, six deletions of STAAU_R12 were cloned into pGADT7 and introduced into AH109 yeast cells with the pGBK vector containing the full length sequence of G1ORF67. The resulting co-transformants were analyzed for their ability to induce expression of reporter genes.
To define the minimal region of G1ORF67 conferring an interaction with STAAU_R12, six deletions of G1ORF67 were cloned into pGADT7 and introduced into AH109 yeast cells with the pGBK vector containing the full length sequence of STAAU_R12. The resulting co-transformants were analyzed for their ability to induce expression of reporter genes required for viability on selective medium.
Test [4] concerns the target STAAU_R12 full length fused to the Gal4 activation domain (p[…]_R12) (Staphylococcus aureus, UniProt P0A0I8 1-368). Nature of the test: yeast two-hybrid, AH109.
In test [5] the target is T3, HK-STAAU_R12 (Staphylococcus aureus, UniProt P0A0I8 1-368).
T3 construct: not shown: N-terminal 6x histidine tag and heart muscle kinase (HMK) phosphorylation site of vector pH6K
Nature of the test: TR-FRET, 32 nM of both GB-G1ORF67 and HK-STAAU_R12. On the technique in general: TR-FRET usually uses a lanthanide donor and a delayed reading to cut background.

Test [6] addresses T2, STAAU_R12. Nature of the test: Far Western analysis with 32P-labeled HK-STAAU_R12 probe. The test is classed as binding. Details: made in house; host or cells: E. coli BL21. As to conditions: 100 ng to 2 μg immobilised protein, FIG. 4. The method, then: Radiolabeling of the proteins was done through the heart muscle phosphate acceptor site with the heart muscle kinase enzyme (HMK). The labeled probe was incubated with immobilized target protein, and the interaction was detected by exposure to X-ray film after extensive washes.
For radiolabeling with […], 10-15 μg of STAAU_R12 fused to 6× histidine and the HMK kinase acceptor domain (HK-STAAU_R12) were incubated with 50 units of the catalytic sub-unit of cAMP-dependent protein kinase (Heart Muscle Kinase; Sigma) in a total volume of 100 μl containing 20 mM Tris pH 7.5, 100 mM NaCl, 12 mM MgCl2, 1 mM DTT and 50 μCi of [γ^32P]-ATP (3000 Ci/mmole) (NEN/Mandel) for 30 min at room temperature. To remove free nucleotides, the protein was applied to a Sephadex-G50™ column and eluted with Z-buffer (25 mM Hepes pH 7.7, 12.5 mM MgCl2, 20% glycerol, 100 mM KCl & 1 mM DTT) and the incorporation of γ^32P-ATP was determined by counting in a liquid scintillation counter.
Increasing amounts (from 100 ng to 2 μg) of HB-G1ORF67 and as a negative control, 77ORF104 protein (2 μg) were used for Far-western analysis. Proteins were resolved by 15% SDS-PAGE and transferred onto a nitrocellulose membrane (Millipore). […]

Test [7] concerns the target T3, HK-STAAU_R12. Kind of test: TR-FRET competition, untagged G1ORF67 against 32 nM GB-G1ORF67 on 32 nM HK-STAAU_R12.

T2 sequence (P0A0J0 whole entry, the tested form may be a part): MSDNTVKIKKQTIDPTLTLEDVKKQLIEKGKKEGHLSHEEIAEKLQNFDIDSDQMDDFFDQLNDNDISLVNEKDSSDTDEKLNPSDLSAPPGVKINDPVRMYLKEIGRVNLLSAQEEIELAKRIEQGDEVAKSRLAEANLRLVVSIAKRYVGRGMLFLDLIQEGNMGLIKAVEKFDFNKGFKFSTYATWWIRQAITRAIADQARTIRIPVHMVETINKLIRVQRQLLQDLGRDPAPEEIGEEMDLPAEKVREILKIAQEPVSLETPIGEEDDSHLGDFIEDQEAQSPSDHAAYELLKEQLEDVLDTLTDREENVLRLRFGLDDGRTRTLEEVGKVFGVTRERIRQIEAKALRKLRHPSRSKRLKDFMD
T3 sequence (P0A0I8 whole entry): as the sequence (P0A0J0 whole entry, the tested form may be a part) above
Sequence of SV40 large T antigen (pGADT7-LargeT) (P03070 86-708 limits assumed): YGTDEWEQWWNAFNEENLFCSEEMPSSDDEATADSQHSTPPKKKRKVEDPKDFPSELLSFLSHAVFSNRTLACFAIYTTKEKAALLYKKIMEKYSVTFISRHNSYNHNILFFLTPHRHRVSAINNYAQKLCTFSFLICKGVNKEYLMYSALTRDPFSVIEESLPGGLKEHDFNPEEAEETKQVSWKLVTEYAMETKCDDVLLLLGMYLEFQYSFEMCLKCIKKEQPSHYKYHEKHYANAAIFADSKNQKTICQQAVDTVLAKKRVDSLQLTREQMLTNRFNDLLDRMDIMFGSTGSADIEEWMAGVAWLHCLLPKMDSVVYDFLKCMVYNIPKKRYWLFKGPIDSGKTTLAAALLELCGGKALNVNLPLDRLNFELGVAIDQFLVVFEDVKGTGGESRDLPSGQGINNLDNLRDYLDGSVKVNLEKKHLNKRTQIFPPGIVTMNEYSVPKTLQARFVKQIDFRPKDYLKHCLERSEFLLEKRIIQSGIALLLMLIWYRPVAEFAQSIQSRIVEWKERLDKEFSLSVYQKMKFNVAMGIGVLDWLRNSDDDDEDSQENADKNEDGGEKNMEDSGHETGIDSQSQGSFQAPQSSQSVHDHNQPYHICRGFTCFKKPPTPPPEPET
T1 sequence (P0A0J0 whole entry): as the sequence (P0A0J0 whole entry, the tested form may be a part) above
Sequence of STAAU_R12 full length fused to the Gal4 activation domain (p[…]_R12) (P0A0I8 whole entry, the tested form may be a part): as the sequence (P0A0J0 whole entry, the tested form may be a part) above

Take “GST: glutathione-S-transferase protein used as a negative control [reference compound]”: the “inhibition of STAAU_R12 mediated transcriptional activation (TCA precipitation)” value in test [1] is “did not show any inhibition”.

B1: G1ORF67 full length fused to the Gal4 DNA-binding domain (G1pGBKORF67) (other)
chain: MKLLSSIEQACDICRLKKLKCSKEKPKCAKCLKNNWECRYSPKTKRSPLTRAHLTEVESRLERLEQLFLLIFPREDLDMILKMDSLQDIKALLTGLFVQDNVNKDAVTDRLASVETDMPLTLRQHRISATSSSEESSNKGQRQLTVSMKLKILDKDNATLNVFHRNKEHKTIDNVPTANLVDWYPLSNAYEYKLSRNGEYLELKRLRSTLPSSYGLDDNNQDIIRDNNHRCKIGYWYNPAVRKDNLKIIEKAKQYGLPIITEEYDANTVEQGFRDIGVIFQSLKTIVVTRYLEGKTEEELRIFNMKSEESQLNEALKESDFSVDLTYSDLGQIYNMLLLMKKISK
Turning to B1, the binding result in test [2] is “no binding”.

B2: G1ORF67—50—198: 149 amino acid fragment of G1ORF67, amino acids residues 50 to 198 (SEQ ID NO: 8) (protein)
chain: NGEYLELKRLRSTLPSSYGLDDNNQDIIRDNNHRCKIGYWYNPAVRKDNLKIIEKAKQYGLPIITEEYDANTVEQGFRDIGVIFQSLKTIVVTRYLEGKTEEELRIFNMKSEESQLNEALKESDFSVDLTYSDLGQIYNMLLLMKKISK
modifications: Bacteriophage G1
In the case of B2, the “interaction with full length STAAU_R12 (growth on SD THAL minus medium)” value with STAAU_R12 [3] is “found to interact”.

B3: LaminC (pGBKT7LaminC) (other)
chain: MKLLSSIEQACDICRLKKLKCSKEKPKCAKCLKNNWECRYSPKTKRSPLTRAHLTEVESRLERLEQLFLLIFPREDLDMILKMDSLQDIKALLTGLFVQDNVNKDAVTDRLASVETDMPLTLRQHRISATSSSEESSNKGQRQLTVSSEEVVSREVSGIKAAYEAELGDARKTLDSVAKERARLQLELSKVREEFKELKARNTKKEGDLIAAQARLKDLEALLNSKEAALSTALSEKRTLEGELHDLRGQVAKLEAALGEAKKQLQDEMLRRVDAENRLQTMKEELDFQKNIYSEELRETKRRHETRLVEID
Turning to B3, the binding result in test [4] is given as “no binding”.

B4: GB-G1ORF67 (other)
chain: MKLKILDKDNATLNVFHRNKEHKTIDNVPTANLVDWYPLSNAYEYKLSRNGEYLELKRLRSTLPSSYGLDDNNQDIIRDNNHRCKIGYWYNPAVRKDNLKIIEKAKQYGLPIITEEYDANTVEQGFRDIGVIFQSLKTIVVTRYLEGKTEEELRIFNMKSEESQLNEALKESDFSVDLTYSDLGQIYNMLLLMKKISK
notes: also called GST-Bio fusion of G1ORF67; GST-tagged G1ORF67
Take B4: in the test with HK-STAAU_R12 [5], the TR-FRET signal-to-background is 30 ratio (to 1).

B5: HB-G1ORF67: G1ORF67 fused N-terminally to 6× Histidine residues and a biotin acceptor domain, purified from E. coli (protein)
chain: MKLKILDKDNATLNVFHRNKEHKTIDNVPTANLVDWYPLSNAYEYKLSRNGEYLELKRLRSTLPSSYGLDDNNQDIIRDNNHRCKIGYWYNPAVRKDNLKIIEKAKQYGLPIITEEYDANTVEQGFRDIGVIFQSLKTIVVTRYLEGKTEEELRIFNMKSEESQLNEALKESDFSVDLTYSDLGQIYNMLLLMKKISK
modifications: left off: small tags and cut ends
notes: G1ORF67 fused N-terminally to 6× Histidine residues and a biotin acceptor domain, purified from E. coli
Regarding B5, in the test with STAAU_R12 [6], the “interaction with labeled STAAU_R12 probe” value is recorded as “directly interacts with STAAU_R12 in a dose-dependent manner”.

B6: untagged G1ORF67 (other)
chain: MKLKILDKDNATLNVFHRNKEHKTIDNVPTANLVDWYPLSNAYEYKLSRNGEYLELKRLRSTLPSSYGLDDNNQDIIRDNNHRCKIGYWYNPAVRKDNLKIIEKAKQYGLPIITEEYDANTVEQGFRDIGVIFQSLKTIVVTRYLEGKTEEELRIFNMKSEESQLNEALKESDFSVDLTYSDLGQIYNMLLLMKKISK
notes: also called G1ORF67 with GST portion removed by PreScission protease; not shown: the bioti
As to B6, the IC50 – broadly, the concentration needed to halve the response being measured – with HK-STAAU_R12 [7] is roughly 30 nM.
